Source: PMC4067515

Target: recombinant Bet v 1 trimer (birch)
Test: SEC

stoichiometry N: 2
Substance: recombinant Bet v 1 trimer
